Test results as given in article PMC5750235.

Legend:
[1] = target: IgE Fc Cε2–4 (human); assay: SPR; Biacore T200; IgE Fc immobilized (110 RU) on CM5 by NHS/EDC; 026 sdab injected 0.003-50 µg/ml, 25 µl/min; 25 °C; 10 mM monosodium phosphate, 40 mM disodium phosphate, 100 mM NaCl, pH 7.4, 0.01% Tween-20; 1:1 binding model
[2] = target: IgE on the surface of patients' basophils (human (endogenous in patients' blood)); assay: flow cytometry on cells; EDTA blood of allergic donors preincubated with 026 sdab (0 to 45 µmol/l) for up to 60 min in IL-3-containing stimulation buffer; remaining surface IgE on basophils stained with anti-IgE-FITC
Chain of IgE on the surface of patients' basophils (human (endogenous in patients' blood)) (P01854 whole entry): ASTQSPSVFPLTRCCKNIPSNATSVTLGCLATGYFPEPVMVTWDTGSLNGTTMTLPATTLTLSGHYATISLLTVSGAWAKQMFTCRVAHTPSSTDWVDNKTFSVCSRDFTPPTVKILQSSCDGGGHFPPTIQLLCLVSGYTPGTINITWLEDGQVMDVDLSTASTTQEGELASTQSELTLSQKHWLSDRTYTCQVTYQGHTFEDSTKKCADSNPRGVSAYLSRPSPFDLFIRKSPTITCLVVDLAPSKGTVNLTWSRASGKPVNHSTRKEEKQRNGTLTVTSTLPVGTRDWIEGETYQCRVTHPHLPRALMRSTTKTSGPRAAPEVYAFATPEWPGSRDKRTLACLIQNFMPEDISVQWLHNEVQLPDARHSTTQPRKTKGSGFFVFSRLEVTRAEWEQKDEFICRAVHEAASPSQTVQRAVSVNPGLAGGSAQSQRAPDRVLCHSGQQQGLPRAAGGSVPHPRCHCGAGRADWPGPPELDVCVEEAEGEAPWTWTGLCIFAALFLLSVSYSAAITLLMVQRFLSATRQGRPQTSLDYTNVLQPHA

- Kd [1]: 1.4 nM
- surface IgE left on basophils after 15 min with 026 sdab [2]: 30%
- surface IgE left on basophils after prolonged incubation with 026 sdab [2]: 20%
B1: 026 sdab (VHH)
VHH: EVQLLESGGGLVQPGGSLRLSCAASGFTFGNYDMAWVRQAPGKRPEWVSSIDTGGDITHYADSVKGRFTISRDNAKNTLYLQMNSLRPEDTAVYWCATDEEYALGPNEFDYYGQGTLVTVSS
